# Data reported in publication doi:10.64898/2025.12.26.696629.
# T1: SufR6-229-His6 (holo, [4Fe-4S]) (Mycobacterium tuberculosis H37Rv, UniProt O53151 30-253)
# T1 sequence: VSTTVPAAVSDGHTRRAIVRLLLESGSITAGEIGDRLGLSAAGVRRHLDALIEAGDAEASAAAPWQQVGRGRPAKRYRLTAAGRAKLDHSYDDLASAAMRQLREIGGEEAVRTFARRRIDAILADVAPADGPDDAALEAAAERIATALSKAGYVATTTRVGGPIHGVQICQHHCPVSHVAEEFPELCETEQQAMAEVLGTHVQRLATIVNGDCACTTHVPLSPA
# B1: PsufR 50-bp (dsDNA)
# DNA 1: CCGATCAACGGAATTTTGTCACACTGATGTTGTGAAAATCCCGGCGGTCT
# DNA 2: AGACCGCCGGGATTTTCACAACATCAGTGTGACAAAATTCCGTTGATCGG
# Biological target: T1, SufR6-229-His6 (holo, [4Fe-4S])
# Assay: MST
binder,measurement,value
B1,Kd,235 ± 45.8 nM
